One molecule from publication PMC4278586 (Cell, 2014) can be followed below.

Assay [1] addresses full-length gp120 monomer (HIV-1, isolate ; JRCSF as …, UniProt P20871). Put plainly: ITC. In general terms: Isothermal titration calorimetry measures the heat released or taken up as one component is titrated into another.
In assay [2] the target is full-length gp120 pre-complexed with CD4 (HIV-1, isolate  (JRCSF as …, UniProt P20871;P01730)). Put plainly: ITC.

B1: PGT124 Fab (Fab, V domains shown)
VH: QVQLQESGPGLVRPSETLSVTCIVSGGSISNYYWTWIRQSPGKGLEWIGYISDRETTTYNPSLNSRAVISRDTSKNQLSLQLRSVTTADTAIYFCATARRGQRIYGVVSFGEFFYYYYMDVWGKGTAVTVSS
VL: SYVSPLSVALGETARISCGRQALGSRAVQWYQHKPGQAPILLIYNNQDRPSGIPERFSGTPDINFGTTATLTISGVEVGDEADYYCHMWDSRSGFSWSFGGATRLTVL
B1: the dissociation constant Kd (as a rule, the constant that tells how readily two partners part at equilibrium) in assay [1] came out at 38 nM; in assay [2], 34 nM.
